In paper PMC9545174, “Discovery and characterization of SARS-CoV-2 reactive and neutralizing antibodies from humanized CAMouse^HG mice through rapid hybridoma screening and high-throughput single-cell V(D)J sequencing” (Frontiers in Immunology, 2022):

Assays:
[1] = target: T1, wildtype SARS-CoV-2 RBD Protein (Severe acute respiratory syndrome …, UniProt P0DTC2); experiment: SPR; settings: both partners purified
[2] = target: T1, wildtype SARS-CoV-2 RBD Protein; experiment: BLI; settings: both partners purified

| Binder | Kd [1] [nM] | binding result [2] |
| --- | --- | --- |
| 18-4A (antibody, V domains shown) VH: QVQLQQSGPGLVKPSQTLSLTCAISGDSVSNNSAAWNWIRQSPSRGLEWLGRTYYRSKWYNDYAVSVSSRITINPDTSKNQFSLQLNSVTPEDTAVYYCAREGALLWFGEGAFDYWGQGTLVTVSS VL: EIVLTQSPGTLSLSPGERATLSCRASHIVSSSYLAWYQQKPGQAPRFLIYGASSRATGIPDRFSGSGSGTDFTLTISRLEPEDFAVYYCQQYAGSPFTFGPGTKVDIK | 0.234 | – |
| 11-2G (antibody, V domains shown) VH: QVQLQQAGPGLVKPSQTLSLTCAISGDSVSNNSAIWNWIRQSPSRGLEWLGRTYYRSKWYNDYAVSVSSRITINPDTSKNQFSLQLNSVTPEDTAVYYCARVDILTGYSFDYWGQGTLVTVSS VL: EIVLTQSPGTLSLSPGERATLSCRASQSVSSSFLAWYQQKPGQAPRFLIYGESYRATGIPDRFSGSGSGTDFTLTISRLEPEDFAVYYCQQYGSSLTFGGGTKVEIK | 0.451 | – |
| 4-2D (antibody, V domains shown) VH: QVQLQQSGPGLVKPSQTLSLTCAISGDSVSNNSAAWNWIRQSPSRGLEWLGRTYYRSKWYNDYAVSVSSRITINPDTSKNQFSLQLNSVTPEDTAVYYCARGLWIPYYYGMDVWGQGTTVTVS VL: EIVLTQSPGTLSLSPGERATLSCRASQSVSNIFLAWYQQKPGQAPRFLIYGESSRATGIPDRFSGSGSGTDFTLTISRLEPEDFAVYYCQQYGSSLTFGPGTKVDIK | – | binds |
| 15-11F (antibody, V domains shown) VH: QVQLQQSGPGLVKPSQTLSLTCAISGDSVSNNSAAWNWIRQSPSRGLEWLGRTYYRSKWYNDYAVSVSSRITINPDTSKNQFSLQLNSVTPEDTAVYYCARFSRLLGYGMDVWGQGTTVTVS VL: EIVLTQSPGTLSLSPGERATLSCRASQSVISSYLSWYQQKPGQAPRFLIYGAASRATGIPDRFSGSGSGTDFTLTISRLEPEDFAVYYCQQYGSSLTFGGGTKVEIK | – | binds |
| 4-1B (antibody, V domains shown) VH: QVQLQQSGPGLVKPSQTLSLTCAISGDSVSNNSAAWNWIRQSPSRGLEWLGRTYYRSKWYNDYAVSVSSRITINPDTSKNQFSLQLNSVTPEDTAVYYCARGVYGSGPHAFDIWGQGTMVTVSS VL: EIVLTQSPGTLSLSPGERATLSCRASQSVSSSFLAWYQQKPGQAPRFLIYVTSNRATGIPDRFSGSGSGTDFTLTISRLEPEDFAVYYCQQYGSSLTFGGGTKVEIK | – | binds |
